# Measured values reported in the Human Domainome abundance scans (Beltran et al. 2025).
# ± gives the uncertainty stated by the source.
# B1: Intersectin-2, residues 1129 to 1183; numbered along this chain, Q9NZM3 (parent)
# chain: VCQVIAMYDYAANNEDELSFSKGQLINVMNKDDPDWWQGEINGVTGLFPSNYVKM
# Variants of: B1
# Assay: abundance fitness (aPCA) (normalised: wild type 0, dead -1); higher = more abundant; growth selection in yeast, the domain comes from the species named
# Conditions: Homo sapiens
row,Variant,abundance fitness
1,I5L,-0.132 ± 0.041
2,F48C,-0.199 ± 0.047
3,D16T,-0.126 ± 0.055
4,N30H,-0.01 ± 0.054
5,I5D,-0.164 ± 0.037
6,D9K,-0.189 ± 0.062
7,I26W,-0.971 ± 0.076
8,G46C,-0.606 ± 0.068
9,D33T,-0.023 ± 0.034
10,I41F,0.079 ± 0.053
11,M29Q,-0.125 ± 0.063
12,P34N,0.036 ± 0.055
13,V53M,-0.379 ± 0.086
14,G39S,-0.937 ± 0.12
15,Y10S,-0.427 ± 0.035
16,G39E,-0.913 ± 0.098
17,G23D,-0.016 ± 0.057
18,K31F,-0.039 ± 0.058
19,P49Q,-0.129 ± 0.049
20,F48H,-0.937 ± 0.17
21,I41P,-1.01 ± 0.088
22,A12H,-0.221 ± 0.07
23,E15Y,-0.002 ± 0.06
24,I41H,0.022 ± 0.062

row,Variant,abundance fitness
1,P49Y,-0.104 ± 0.097
2,V53L,-0.623 ± 0.042
3,Q38G,-0.05 ± 0.044
4,I5N,-0.186 ± 0.049
5,K54I,-0.123 ± 0.048
6,T45A,-0.044 ± 0.028
7,Q38A,-0.009 ± 0.039
8,M7A,-0.078 ± 0.038
9,D9C,-0.189 ± 0.049
10,Q3I,-0.006 ± 0.083
11,Y10A,-0.66 ± 0.058
12,L25C,-0.088 ± 0.051
13,E17H,0.048 ± 0.062
14,G23C,-0.247 ± 0.059
15,Y10W,-0.037 ± 0.037
16,F20M,-0.26 ± 0.051
17,F20P,-0.919 ± 0.11
18,M7W,-0.188 ± 0.043
19,N27C,-0.046 ± 0.03
20,V28K,-1.04 ± 0.23
21,I5C,-0.077 ± 0.049
22,Y8V,-0.045 ± 0.036
23,D32C,-0.089 ± 0.043
24,G46L,-0.701 ± 0.06

row,Variant,abundance fitness
1,V1I,0.077 ± 0.062
2,A12Y,-0.455 ± 0.045
3,L18P,-0.895 ± 0.18
4,S21Y,-0.12 ± 0.051
5,P49M,-0.086 ± 0.05
6,G39Q,-0.992 ± 0.21
7,V44H,0.028 ± 0.058
8,N14R,0.007 ± 0.029
9,V28Y,-0.87 ± 0.39
10,N51S,-0.02 ± 0.028
11,G23M,-0.262 ± 0.051
12,I26F,-0.085 ± 0.031
13,Q24W,-0.038 ± 0.052
14,A6S,-0.057 ± 0.033
15,V4W,-0.079 ± 0.029
16,Y8S,0.001 ± 0.036
17,G23E,-0.098 ± 0.047
18,A6I,-0.988 ± 0.18
19,D35V,-0.04 ± 0.033
20,A6F,-1.03 ± 0.099
21,F20V,-0.357 ± 0.029
22,D35C,-0.167 ± 0.069
23,P49S,-0.195 ± 0.035
24,A12T,-0.038 ± 0.035

row,Variant,abundance fitness
1,P34L,-0.079 ± 0.03
2,G46R,-0.318 ± 0.037
3,A12M,-0.129 ± 0.033
4,N27W,-0.123 ± 0.055
5,W37G,-0.826 ± 0.043
6,Q38S,-0.046 ± 0.036
7,G46D,-0.799 ± 0.13
8,F20R,-0.98 ± 0.078
9,S19I,-0.515 ± 0.058
10,M55L,-0.095 ± 0.033
11,A12F,-0.663 ± 0.11
12,Q24E,-0.007 ± 0.039
13,Q38Y,-0.012 ± 0.072
14,N27Y,-0.081 ± 0.039
15,E15P,0.011 ± 0.036
16,A11C,-0.048 ± 0.056
17,G23N,0 ± 0.041
18,Q38L,-0.072 ± 0.029
19,M29Y,-0.18 ± 0.089
20,A11L,-0.064 ± 0.031
21,Q3E,0.081 ± 0.062
22,Q24S,-0.073 ± 0.045
23,Q3T,-0.047 ± 0.054
24,L25F,-0.006 ± 0.058

row,Variant,abundance fitness
1,V28I,0.006 ± 0.05
2,N51M,-0.071 ± 0.032
3,W36E,-0.108 ± 0.04
4,T45G,-0.042 ± 0.045
5,E40N,-0.143 ± 0.063
6,N13W,-0.306 ± 0.069
7,T45F,-0.051 ± 0.071
8,L25T,-0.059 ± 0.055
9,M29A,-0.016 ± 0.036
10,V44L,-0.033 ± 0.041
11,E15M,-0.083 ± 0.061
12,D32R,-0.049 ± 0.041
13,Q38P,-0.654 ± 0.061
14,I26L,-0.065 ± 0.037
15,E17P,-0.756 ± 0.12
16,C2P,-0.108 ± 0.045
17,M55T,-0.06 ± 0.079
18,Y52D,-0.575 ± 0.096
19,D16A,0.004 ± 0.041
20,Q38V,-0.033 ± 0.039
21,A6W,-1.02 ± 0.17
22,Q38E,-0.003 ± 0.055
23,N42K,-0.093 ± 0.054
24,Y10E,-0.853 ± 0.1

row,Variant,abundance fitness
1,Y8K,0.074 ± 0.053
2,V44R,-0.055 ± 0.034
3,A12L,-0.578 ± 0.049
4,W37I,-0.615 ± 0.095
5,Y52C,-0.042 ± 0.034
6,D16W,-0.117 ± 0.038
7,L18G,-0.861 ± 0.056
8,P49A,-0.193 ± 0.052
9,N27L,-0.07 ± 0.029
10,Q38T,-0.038 ± 0.034
11,D16K,0.016 ± 0.035
12,G39V,-1.02 ± 0.079
13,Y52L,0.037 ± 0.045
14,M55A,0.079 ± 0.24
15,I5P,-0.531 ± 0.053
16,I26D,-0.857 ± 0.18
17,M29G,-0.065 ± 0.032
18,C2E,-0.3 ± 0.069
19,S21L,-0.037 ± 0.034
20,M7D,0.007 ± 0.06
21,L47H,-0.061 ± 0.068
22,S19R,-0.181 ± 0.033
23,M7S,0.029 ± 0.032
24,N51Q,-0.081 ± 0.062

row,Variant,abundance fitness
1,V44Q,-0.083 ± 0.066
2,A12W,-0.685 ± 0.098
3,M29V,-0.001 ± 0.033
4,L18W,-0.841 ± 0.077
5,D16G,-0.02 ± 0.033
6,D32A,-0.042 ± 0.038
7,I5T,0.023 ± 0.03
8,M55W,-0.255 ± 0.078
9,G39N,-0.831 ± 0.18
10,F48G,-0.945 ± 0.079
11,E17R,-0.016 ± 0.03
12,F20T,-0.88 ± 0.054
13,D9E,-0.117 ± 0.046
14,D35L,-0.029 ± 0.035
15,M7I,0.002 ± 0.041
16,W37E,-0.928 ± 0.071
17,V4L,-0.297 ± 0.033
18,G43P,-0.908 ± 0.075
19,I41T,-0.017 ± 0.049
20,F48T,-0.85 ± 0.096
21,Y8A,-0.002 ± 0.037
22,D33I,-0.112 ± 0.069
23,N42F,-0.126 ± 0.055
